Entries after “also recorded” stand apart in the source; their conditions may differ.
Assays:
APPΔΔICD = experiment: Aβ40 produced from APPΔΔICD co-expressed with BACE1 in HEK 293T cells (ELISA); format: cell-based, human
Description: The experiment was performed according to the standard procedure in the ELISA analysis kit of Invitrogen Company. • a) The target protein was expressed in HEK 293T cell line. Cells were subcultured one day before transfection, and transfection was performed when the degree of cell adhesion reached 70%-80%. […]
48 hours after transfection of HEK 293T cells and N2A cells, or 4.5 days after lentivirus infection of neurons, media and lysates were collected. Aβ40 and Aβ42 in the culture medium and cell lysates were detected by an Aβ ELISA kit as indicated in the protocol. […]

APP = experiment: Cell surface expression of APP in HEK 293T cells (surface biotinylation, Western blot); format: cell-based
Description: FIGS. 29A-29K show ApoE CT is still able to regulate APP metabolism when α- or β-secretase is inhibited. […] N=9. FIGS. 29C-29D show ELISA assay and statistical analysis of Western blot assay for the effects of ApoE CT on Aβ production from co-expressed APP and BACE1 in HEK 293T cells treated with 1 μM ADAM10 inhibitor GI254023X; control group received no inhibitor treatment. FIG. 29C: Aβ40 in cell culture medium; FIG. 29D: Aβ40 in cell lysates. N=6. FIGS. 29E-29F show Western blot detection and statistical analysis of the effects of ApoE CT on the production of α-CTF from co-expressed APP in HEK 293T cells treated with 5 μM BACE1 inhibitor AZD3839; the control group received no inhibitor treatment. N=10. FIGS. 29G-29H show Western blot detection and statistical analysis of α-CTF produced by co-expressing APPM596V and GFP or ApoE CT in HEK 293T cells, respectively. N=7. […] Cell surface proteins of HEK 293T cells expressing GFP(−) and ApoE CT(+) were labeled with sulfo-N-hydroxysuccinimide-biotin and isolated with streptavidin-coupled agarose beads.

B1: ApoE CT: C-terminal fragment of ApoE, positions 216-299 of SEQ ID NO: 12; SEQ ID NO: 33 (protein)
chain: ARMEEMGSRTRDRLDEVKEQVAEVRAKLEEQAQQIRLQAEAFQARLKSWFEPLVEDMQRQWAGLVEKVQAAVGTSAAPVPSDNH
APPΔΔICD
  Aβ40 produced by APPΔΔICD: no longer reduces Aβ produced by APPΔΔICD; also recorded: does not affect Aβ40; also recorded: failed to reduce Aβ40
APP
  APP expression on the cell surface: did not alter APP expression on the cell surface

Reference: patent publication US20250108100A1, “C-TERMINAL FRAGMENT OF APOLIPOPROTEIN E AND APPLICATION THEREOF IN INHIBITING y-SECRETASE ACTIVITY” (SYNPHATEC (SHANGHAI) BIOPHARMACEUTICAL TECHNOLOGY CO., LTD., priority 2022, published 2025)
